The labels stand for the following.
B1: doubly-phosphorylated wild-type rat ERK2 oxidized with H2O2 (sulfenylated on C159) (enzyme)
chain: MAAAAAAGPEMVRGQVFDVGPRYTNLSYIGEGAYGMVCSAYDNLNKVRVAIKKISPFEHQTYCQRTLREIKILLRFRHENIIGINDIIRAPTIEQMKDVYIVQDLMETDLYKLLKTQHLSNDHICYFLYQILRGLKYIHSANVLHRDLKPSNLLLNTTCDLKICDFGLARVADPDHDHTGFLTEYVATRWYRAPEIMLNSKGYTKSIDIWSVGCILAEMLSNRPIFPGKHYLDQLNHILGILGSPSQEDLNCIINLKARNYLLSLPHKNKVPWNRLFPNADSKALDLLDKMLTFNPHKRIEVEQALAHPYLEQYYDPSDEPIAEAPFKFDMELDDLPKEKLKELIFEETARFQPGYRS

Test [1] concerns the target B1. The test is described as follows: SPR. In general terms: SPR reads the build-up and loss of mass on a sensor chip optically.
A further test concerns the target T1, FITC-labeled pepHePTP.
T1 peptide: {FITC}-RLQERRGSNVALMLDV
Description: fluorescence polarisation.

Where no end group is shown, it is not given here. The star is where a group is joined. FITC = O=C1OC2(c3ccc(O)cc3Oc3cc(O)ccc32)c2ccc(NC(=S)*)cc21

Usually Kd stands for the equilibrium constant for the complex coming apart. Lower therefore signals a tighter complex. The molecule Ac-FQRKTLQRRNLKGLNLNL-NH2 [Lig-D peptide] returned a Kd in test [1] of 58 µM.

With B1, the “fold increase in KD,app against untreated ERK2” value with FITC-labeled pepHePTP was ~100 fold.

Values taken from paper PMC10514464 (iScience, 2023).
